The Human Domainome abundance scans (Beltran et al. 2025)
± gives the uncertainty stated by the source.

B1: Cullin-9, residues 2234 to 2275; numbered along this chain, Q8IWT3 (parent)
chain: KRCPSCQAPIEKNEGCLHMTCAKCNHGFCWRCLKSWKPNHKD

Variants of: B1
Test: abundance fitness (aPCA) (normalised: wild type 0, dead -1); higher = more abundant; growth selection in yeast, the domain comes from the species named
Conditions: Homo sapiens

Row | Variant | abundance fitness
1 | KRCPSCQAPIEKNEGCLAMTCAKCNHGFCWRCLKSWKPNHKD [H18A] | -0.142 ± 0.083
2 | KRCPSCQAPIEKNEGKLHMTCAKCNHGFCWRCLKSWKPNHKD [C16K] | 0.324 ± 0.099
3 | KRCPSCQAPIEKNEGQLHMTCAKCNHGFCWRCLKSWKPNHKD [C16Q] | 0.416 ± 0.091
4 | KRCPSCQAPIEKNEGSLHMTCAKCNHGFCWRCLKSWKPNHKD [C16S] | 0.422 ± 0.083
5 | KRCPSCQAPIEKNEGRLHMTCAKCNHGFCWRCLKSWKPNHKD [C16R] | 0.227 ± 0.073
6 | KRCPSCQAPIEKNEGPLHMTCAKCNHGFCWRCLKSWKPNHKD [C16P] | 0.161 ± 0.098
7 | KRCPSCQAPIEKNEGFLHMTCAKCNHGFCWRCLKSWKPNHKD [C16F] | -0.149 ± 0.15
8 | KRCPSCQAPIEKNEGALHMTCAKCNHGFCWRCLKSWKPNHKD [C16A] | 0.329 ± 0.079
9 | KRCPSCQAPIEKNEGMLHMTCAKCNHGFCWRCLKSWKPNHKD [C16M] | 0.202 ± 0.11
10 | KRCPSCQAPIEKNEGGLHMTCAKCNHGFCWRCLKSWKPNHKD [C16G] | 0.55 ± 0.069
11 | KRCPSCQAPIEKNEGNLHMTCAKCNHGFCWRCLKSWKPNHKD [C16N] | 0.23 ± 0.13
12 | KRCPSCQAPIEKNEGELHMTCAKCNHGFCWRCLKSWKPNHKD [C16E] | 0.507 ± 0.082
13 | KRCPSCQAPIEKNEGILHMTCAKCNHGFCWRCLKSWKPNHKD [C16I] | 0.444 ± 0.16
14 | KRCPSCQAPIEKNEGVLHMTCAKCNHGFCWRCLKSWKPNHKD [C16V] | 0.449 ± 0.085
15 | KRCPSCQAPIEKNEGDLHMTCAKCNHGFCWRCLKSWKPNHKD [C16D] | 0.544 ± 0.092
16 | KRCPSCQAPIEKNEGHLHMTCAKCNHGFCWRCLKSWKPNHKD [C16H] | 0.105 ± 0.14
17 | KRCPSCQAPIEKNEGTLHMTCAKCNHGFCWRCLKSWKPNHKD [C16T] | 0.471 ± 0.11
18 | KRCPSCQAPIEKNEGLLHMTCAKCNHGFCWRCLKSWKPNHKD [C16L] | -0.115 ± 0.084
19 | KRCPSCQAPIEKNEGWLHMTCAKCNHGFCWRCLKSWKPNHKD [C16W] | -0.121 ± 0.09
20 | KRCPSCQAPIEKNEGYLHMTCAKCNHGFCWRCLKSWKPNHKD [C16Y] | -0.032 ± 0.15

Row | Variant | abundance fitness
21 | KRCPSCQAPIEKNEKCLHMTCAKCNHGFCWRCLKSWKPNHKD [G15K] | -0.294 ± 0.15
22 | KRCPSCQAPIEKNEQCLHMTCAKCNHGFCWRCLKSWKPNHKD [G15Q] | -0.777 ± 0.21
23 | KRCPSCQAPIEKNETCLHMTCAKCNHGFCWRCLKSWKPNHKD [G15T] | -0.698 ± 0.17
24 | KRCPSCQAPIEKNELCLHMTCAKCNHGFCWRCLKSWKPNHKD [G15L] | -0.515 ± 0.17
25 | KRCPSCQAPIEKNEMCLHMTCAKCNHGFCWRCLKSWKPNHKD [G15M] | -0.576 ± 0.17
26 | KRCPSCQAPIEKNECCLHMTCAKCNHGFCWRCLKSWKPNHKD [G15C] | -0.113 ± 0.33
27 | KRCPSCQAPIEKNERCLHMTCAKCNHGFCWRCLKSWKPNHKD [G15R] | -0.096 ± 0.092
28 | KRCPSCQAPIEKNEECLHMTCAKCNHGFCWRCLKSWKPNHKD [G15E] | 0.045 ± 0.097
29 | KRCPSCQAPIEKNESCLHMTCAKCNHGFCWRCLKSWKPNHKD [G15S] | -0.362 ± 0.11
30 | KRCPSCQAPIEKNEPCLHMTCAKCNHGFCWRCLKSWKPNHKD [G15P] | -0.259 ± 0.12
31 | KRCPSCQAPIEKNEWCLHMTCAKCNHGFCWRCLKSWKPNHKD [G15W] | -0.176 ± 0.1
32 | KRCPSCQAPIEKNEACLHMTCAKCNHGFCWRCLKSWKPNHKD [G15A] | -0.003 ± 0.1
33 | KRCPSCQAPIEKNEHCLHMTCAKCNHGFCWRCLKSWKPNHKD [G15H] | -0.492 ± 0.17
34 | KRCPSCQAPIEMNEGCLHMTCAKCNHGFCWRCLKSWKPNHKD [K12M] | -0.22 ± 0.12
35 | KRCPSCQAPIEYNEGCLHMTCAKCNHGFCWRCLKSWKPNHKD [K12Y] | -0.152 ± 0.17
36 | KRCPSCQAPIEVNEGCLHMTCAKCNHGFCWRCLKSWKPNHKD [K12V] | -0.2 ± 0.089
37 | KRCPSCQAPIETNEGCLHMTCAKCNHGFCWRCLKSWKPNHKD [K12T] | -0.046 ± 0.095
38 | KRCPSCQAPIESNEGCLHMTCAKCNHGFCWRCLKSWKPNHKD [K12S] | -0.112 ± 0.085
39 | KRCPSCQAPIEGNEGCLHMTCAKCNHGFCWRCLKSWKPNHKD [K12G] | 0.268 ± 0.071
40 | KRCPSCQAPIEDNEGCLHMTCAKCNHGFCWRCLKSWKPNHKD [K12D] | -0.248 ± 0.12

Row | Variant | abundance fitness
41 | KRCPSCQAPIEINEGCLHMTCAKCNHGFCWRCLKSWKPNHKD [K12I] | -0.492 ± 0.23
42 | KRCPSCQAPIEHNEGCLHMTCAKCNHGFCWRCLKSWKPNHKD [K12H] | -0.151 ± 0.2
43 | KRCPSCQAPIEPNEGCLHMTCAKCNHGFCWRCLKSWKPNHKD [K12P] | 0.057 ± 0.081
44 | KRCPSCQAPIELNEGCLHMTCAKCNHGFCWRCLKSWKPNHKD [K12L] | -0.201 ± 0.081
45 | KRCPSCQAPIEQNEGCLHMTCAKCNHGFCWRCLKSWKPNHKD [K12Q] | 0.008 ± 0.091
46 | KRCPSCQAPIEFNEGCLHMTCAKCNHGFCWRCLKSWKPNHKD [K12F] | -0.469 ± 0.38
47 | KRCPSCQAPIEANEGCLHMTCAKCNHGFCWRCLKSWKPNHKD [K12A] | 0.126 ± 0.081
48 | KRCPSCQAPIMKNEGCLHMTCAKCNHGFCWRCLKSWKPNHKD [E11M] | -0.383 ± 0.13
49 | KRCPSCQAPIGKNEGCLHMTCAKCNHGFCWRCLKSWKPNHKD [E11G] | -0.34 ± 0.079
50 | KRCPSCQAPITKNEGCLHMTCAKCNHGFCWRCLKSWKPNHKD [E11T] | -0.159 ± 0.15
51 | KRCPSCQAPIHKNEGCLHMTCAKCNHGFCWRCLKSWKPNHKD [E11H] | -0.138 ± 0.3
52 | KRCPSCQAPISKNEGCLHMTCAKCNHGFCWRCLKSWKPNHKD [E11S] | -0.41 ± 0.12
53 | KRCPSCQAPIDKNEGCLHMTCAKCNHGFCWRCLKSWKPNHKD [E11D] | -0.137 ± 0.2
54 | KRCPSCQAPIWKNEGCLHMTCAKCNHGFCWRCLKSWKPNHKD [E11W] | -0.069 ± 0.14
55 | KRCPSCQAPILKNEGCLHMTCAKCNHGFCWRCLKSWKPNHKD [E11L] | -0.318 ± 0.095
56 | KRCPSCQAPICKNEGCLHMTCAKCNHGFCWRCLKSWKPNHKD [E11C] | -0.487 ± 0.16
57 | KRCPSCQAPIQKNEGCLHMTCAKCNHGFCWRCLKSWKPNHKD [E11Q] | -0.448 ± 0.33
58 | KRCPSCQAPIPKNEGCLHMTCAKCNHGFCWRCLKSWKPNHKD [E11P] | -0.309 ± 0.17
59 | KRCPSCQAPIVKNEGCLHMTCAKCNHGFCWRCLKSWKPNHKD [E11V] | -0.408 ± 0.1
60 | KRCPSCQAPIKKNEGCLHMTCAKCNHGFCWRCLKSWKPNHKD [E11K] | -0.27 ± 0.12
